Measured values reported in patent US6825167.

What was measured:
αvβ3 integrin (human) [1] = biological target: αvβ3 integrin (human) (UniProt P06756); assay: attachment of αvβ3-expressing WM35 cells to wells coated at 1 nmole/well, Cell Counting Kit-8
αvβ3 integrin (human) [2] = biological target: αvβ3 integrin (human) (UniProt P06756); assay: cell-based or functional assay

UniProt P06756, sequence (P06756 31-1048, chain 1 of 2): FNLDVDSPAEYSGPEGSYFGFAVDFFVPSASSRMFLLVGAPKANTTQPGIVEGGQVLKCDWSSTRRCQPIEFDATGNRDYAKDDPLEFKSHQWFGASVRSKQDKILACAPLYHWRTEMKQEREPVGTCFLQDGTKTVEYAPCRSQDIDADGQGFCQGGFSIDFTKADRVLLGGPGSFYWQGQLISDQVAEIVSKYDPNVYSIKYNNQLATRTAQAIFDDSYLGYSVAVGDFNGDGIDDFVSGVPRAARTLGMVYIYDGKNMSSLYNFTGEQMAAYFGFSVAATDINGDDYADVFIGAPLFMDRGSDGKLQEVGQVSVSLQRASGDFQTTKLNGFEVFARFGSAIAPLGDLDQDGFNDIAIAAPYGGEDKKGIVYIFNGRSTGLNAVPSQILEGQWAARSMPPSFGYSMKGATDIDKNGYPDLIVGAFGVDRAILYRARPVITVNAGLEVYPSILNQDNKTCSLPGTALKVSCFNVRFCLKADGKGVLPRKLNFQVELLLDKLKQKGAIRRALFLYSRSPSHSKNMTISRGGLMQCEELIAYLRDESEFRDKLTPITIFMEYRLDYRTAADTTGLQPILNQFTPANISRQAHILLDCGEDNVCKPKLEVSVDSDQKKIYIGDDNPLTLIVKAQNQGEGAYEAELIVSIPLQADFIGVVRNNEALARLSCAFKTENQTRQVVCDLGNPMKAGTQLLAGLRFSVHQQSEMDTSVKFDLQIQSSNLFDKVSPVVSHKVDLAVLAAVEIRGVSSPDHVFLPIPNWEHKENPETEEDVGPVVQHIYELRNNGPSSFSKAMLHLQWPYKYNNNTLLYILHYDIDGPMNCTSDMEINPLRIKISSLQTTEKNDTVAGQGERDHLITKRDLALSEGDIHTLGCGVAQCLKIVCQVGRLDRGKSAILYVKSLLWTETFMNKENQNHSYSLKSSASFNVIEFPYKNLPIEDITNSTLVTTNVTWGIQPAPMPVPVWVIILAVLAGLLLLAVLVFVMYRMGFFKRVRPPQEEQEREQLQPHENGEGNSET
UniProt P06756, sequence (P05106 27-788, chain 2 of 2, further chain): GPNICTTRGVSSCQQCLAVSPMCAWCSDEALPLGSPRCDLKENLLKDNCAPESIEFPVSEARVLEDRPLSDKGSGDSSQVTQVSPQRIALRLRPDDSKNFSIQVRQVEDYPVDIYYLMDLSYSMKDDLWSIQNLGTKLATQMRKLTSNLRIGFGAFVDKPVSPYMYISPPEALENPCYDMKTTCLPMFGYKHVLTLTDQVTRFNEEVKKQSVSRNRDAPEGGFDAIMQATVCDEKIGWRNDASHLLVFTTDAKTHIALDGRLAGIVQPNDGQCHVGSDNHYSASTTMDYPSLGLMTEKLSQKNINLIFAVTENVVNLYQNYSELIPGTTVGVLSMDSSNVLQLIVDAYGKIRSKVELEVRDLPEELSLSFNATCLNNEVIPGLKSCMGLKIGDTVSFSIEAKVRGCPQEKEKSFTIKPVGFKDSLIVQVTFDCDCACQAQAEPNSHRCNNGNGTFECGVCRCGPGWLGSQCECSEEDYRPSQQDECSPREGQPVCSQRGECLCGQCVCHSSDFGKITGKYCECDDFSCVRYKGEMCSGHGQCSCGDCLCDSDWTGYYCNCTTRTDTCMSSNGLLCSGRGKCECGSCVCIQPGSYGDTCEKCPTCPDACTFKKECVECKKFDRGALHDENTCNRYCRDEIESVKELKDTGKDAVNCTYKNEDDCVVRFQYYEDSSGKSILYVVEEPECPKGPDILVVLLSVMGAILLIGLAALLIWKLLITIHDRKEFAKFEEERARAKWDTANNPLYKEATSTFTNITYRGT

| percent of cells attached (100% = gelatin-coated wells) (αvβ3 integrin (human) [1]) | HUVEC attachment to coated wells (100% = gelatin-coated wells) (αvβ3 integrin (human) [2]) | direct binding of [125I]-RGD-endostatin to HUVEC (pmole per 10^6 cells) (αvβ3 integrin (human) [2]) | increase of HUVEC attachment over native endostatin (αvβ3 integrin (human) [2]) | Substance |
| --- | --- | --- | --- | --- |
| 60% | 80% | 1.2 pmol | 40% | RGD-human endostatin (from UniProt P39060 1572-1754) |
|  | 80% |  | 40% | human endostatin-RGD (from UniProt P39060 1572-1754) |
| 18% |  |  |  | human endostatin (from UniProt P39060 1572-1754) |
